# B1: OR4K15 (parent)
# chain: GUUAACGGUCAUAGGCCAUGGAAACUAGGAGCACCAUUUCGCUGCCAGUGAAGAAAUGAACAAAGAAAAUCUGGGCCAGGCAGGCAUCAAAAGAAAUAGUCUUGCGCUCAACCAGAAAGUCUGUAAUCAUUUUAAGGGUA
# Variants of: B1
# Assay: self-cleavage, relative activity (ratio to wild type); higher = more cleavage; in vitro, sequencing; the parent is a self-cleaving ribozyme
row,Variant,self-cleavage
1,GUUAACGGUCAAAGGCCAUGGAAACUAGGAGCACCAUUUCGCUGCCAGUGAAGAAAUGAACAAAGAAAAUCUGGGCCAGGCAGGCAUCAAAAGAAAUAGUCUUGCGCUCAACCAGAAGGUCUGUAAUCAUUUUAAGGGUA [U12A A118G],1.04
2,GUUAACGGUCAAAGGCCAUGGAAACUAGGAGCACCAUUUCGCUGCCAGUGAAGAAAUGAACAAAGAAAAUCUGGGCCAGGCAGGCAUCAAAAGAAAUAGUCUUGCGCUCAACCAGAAAGUCUGUAAUCAUUUUAUGGGUA [U12A A135U],1.29
3,GUUAACGGUCAAAGGCCAUGGAAACUAGGAGCACCAUUUCGCUGCCAGUGAAGAAAUGAACAAAGAAAAUCUGGGCCAGGCAGGCAUCAAAAGAAAUAGUCUUGCGCUCAACCAGAAAGUCUGUAAUCAUUUUAGGGGUA [U12A A135G],1.47
4,GUUAACGGUCAAAGGCCAUGGAAACUAGGAGCACCAUCUCGCUGCCAGUGAAGAAAUGAACAAAGAAAAUCUGGGCCAGGCAGGCAUCAAAAGAAAUAGUCUUGCGCUCAACCAGAAAGUCUGUAAUCAUUUUAAGGGUA [U12A U38C],1.4
5,GUUAACGGUCAAAGGCCAUGGAAACUAGGAGCACCAUUUCGCUGCCAGUGAAGAAAUGUACAAAGAAAAUCUGGGCCAGGCAGGCAUCAAAAGAAAUAGUCUUGCGCUCAACCAGAAAGUCUGUAAUCAUUUUAAGGGUA [U12A A59U],0.95
6,GUUAACGGUCAAAGGCCAUGGAAACUAGGAGCACCAUUUCGCUGCCAGUGAAGAAAUGAACAAAGAAAAUCUGGGCUAGGCAGGCAUCAAAAGAAAUAGUCUUGCGCUCAACCAGAAAGUCUGUAAUCAUUUUAAGGGUA [U12A C77U],1.45
7,GUUAACGGUCAAAGGCCAUGGAAACUAGGAACACCAUUUCGCUGCCAGUGAAGAAAUGAACAAAGAAAAUCUGGGCCAGGCAGGCAUCAAAAGAAAUAGUCUUGCGCUCAACCAGAAAGUCUGUAAUCAUUUUAAGGGUA [U12A G31A],1.75
8,GUUAACGGUCAAAGGCCAUGGAAACUAGGAGCACCAUUUCGCUGCCAGUGAAGAAAUGAACAAAGAAAAUCUGGGCCAGGCAGGCAUCAAAAGAAAUAGUCUCGCGCUCAACCAGAAAGUCUGUAAUCAUUUUAAGGGUA [U12A U103C],0.14
9,GUUAACGGUCAAAGGCCAUGGAAACUAGGAGCACCAUUUCGCUGCCAGUGAAGAAAUGAACAGAGAAAAUCUGGGCCAGGCAGGCAUCAAAAGAAAUAGUCUUGCGCUCAACCAGAAAGUCUGUAAUCAUUUUAAGGGUA [U12A A63G],0.6
10,GUUAACGGUCAAAGGCCGUGGAAACUAGGAGCACCAUUUCGCUGCCAGUGAAGAAAUGAACAAAGAAAAUCUGGGCCAGGCAGGCAUCAAAAGAAAUAGUCUUGCGCUCAACCAGAAAGUCUGUAAUCAUUUUAAGGGUA [U12A A18G],1.65
11,GUUAACGGUCAAAGGCCAUGGAAACUAGGAGCACCAUUUCGCUGCCAGUGAAGAAAUGAACAAAGAAAAUCAGGGCCAGGCAGGCAUCAAAAGAAAUAGUCUUGCGCUCAACCAGAAAGUCUGUAAUCAUUUUAAGGGUA [U12A U72A],0.36
12,GUUAACGGUCAAAGGCCAUGGAAACUAGGAGCACCAUUUCGCUGCCAGUGAAGAAAUGAACAAAGAAAAUCUGGGCCGGGCAGGCAUCAAAAGAAAUAGUCUUGCGCUCAACCAGAAAGUCUGUAAUCAUUUUAAGGGUA [U12A A78G],0.2
13,GUUAACGGUCAAAGGCCAUGGAAACUAGGAGCACCAUUUCGCUGCCAGUGAAGAAAUGAACAAAGAAAAUCUGGGCCAGGCAGGCAUCAAAAGAAAUAGUCUUGCGCUCAACCAGAAAGUCUGUAAUCAUUUUAAGGGUG [U12A A140G],1.5
14,GUUAACGGUCAAAGGCCAUGGAAACUAGGAGCACCAUUUCGCUGCCAGUGAAGAAAUGAACAAAGAAAAUCUGGGCCAGGCAGGCAUCAAGAGAAAUAGUCUUGCGCUCAACCAGAAAGUCUGUAAUCAUUUUAAGGGUA [U12A A91G],1.57
15,GUUAACGGUCAAAGGCCAUGGAAGCUAGGAGCACCAUUUCGCUGCCAGUGAAGAAAUGAACAAAGAAAAUCUGGGCCAGGCAGGCAUCAAAAGAAAUAGUCUUGCGCUCAACCAGAAAGUCUGUAAUCAUUUUAAGGGUA [U12A A24G],0.69
16,GUUAACGGUCAAAGGCCAUGGAAACUAGGAGCACCAUUUCGCUGCCAGUGAAGAAAUGAACAAAGAAAACCUGGGCCAGGCAGGCAUCAAAAGAAAUAGUCUUGCGCUCAACCAGAAAGUCUGUAAUCAUUUUAAGGGUA [U12A U70C],0.41
17,GUUAACGGUCAAAGGCCAUGGAAACUAGGAGCAUCAUUUCGCUGCCAGUGAAGAAAUGAACAAAGAAAAUCUGGGCCAGGCAGGCAUCAAAAGAAAUAGUCUUGCGCUCAACCAGAAAGUCUGUAAUCAUUUUAAGGGUA [U12A C34U],0.53
18,GUUAACGGUCACAGGCCAUGGAAGCUAGGAGCACCAUUUCGCUGCCAGUGAAGAAAUGAACAAAGAAAAUCUGGGCCAGGCAGGCAUCAAAAGAAAUAGUCUUGCGCUCAACCAGAAAGUCUGUAAUCAUUUUAAGGGUA [U12C A24G],1.09
19,GUUAACGGUCAAAGGCCAUGGAAACUAGGAGCACCAUUUCGCUGCCAGUGAUGAAAUGAACAAAGAAAAUCUGGGCCAGGCAGGCAUCAAAAGAAAUAGUCUUGCGCUCAACCAGAAAGUCUGUAAUCAUUUUAAGGGUA [U12A A52U],1.23
20,GUUAACGGUCACAGGCCUUGGAAACUAGGAGCACCAUUUCGCUGCCAGUGAAGAAAUGAACAAAGAAAAUCUGGGCCAGGCAGGCAUCAAAAGAAAUAGUCUUGCGCUCAACCAGAAAGUCUGUAAUCAUUUUAAGGGUA [U12C A18U],1.3
21,GUUAACGGUCACAGGCCGUGGAAACUAGGAGCACCAUUUCGCUGCCAGUGAAGAAAUGAACAAAGAAAAUCUGGGCCAGGCAGGCAUCAAAAGAAAUAGUCUUGCGCUCAACCAGAAAGUCUGUAAUCAUUUUAAGGGUA [U12C A18G],0.87

row,Variant,self-cleavage
1,GUUAACGGUCAAAGGCCAUGGAAACUAGGAGCACCAUUUCGCUGCCAGUGAAGAAAUGAACAAAGAAAAUCUGGGCCAGGCAGGCAUCAAAAGAAAUAGUCUUGCGCUCAACCAGGAAGUCUGUAAUCAUUUUAAGGGUA [U12A A116G],0.49
2,GUUAACGGUCAAAGGCCAUGGAAACUAGGAGCACCAUUUCGCUGCCAGUGAAGAAAUGAACAAAGAAAAUCUGGGCCAGGCAGGCAUCAAAAGGAAUAGUCUUGCGCUCAACCAGAAAGUCUGUAAUCAUUUUAAGGGUA [U12A A94G],1.12
3,GUUAACGGUCAAAGGCCAUGGAAACUAGGAGCACCAUUUCGCUGCCAGUGAAGAAAUGAACAAAGAAAAUCUGGGCCAGGCAGGCAUCAAAAGAAAUAGUCUUGCGCUCAACCAGAAAGUCUGUAAUCAUCUUAAGGGUA [U12A U131C],2.37
4,GUUAACGGUCACAGGCCAUGGGAACUAGGAGCACCAUUUCGCUGCCAGUGAAGAAAUGAACAAAGAAAAUCUGGGCCAGGCAGGCAUCAAAAGAAAUAGUCUUGCGCUCAACCAGAAAGUCUGUAAUCAUUUUAAGGGUA [U12C A22G],0.98
5,GUUAACGGUCAAAGGCCAUGGAAACUAGGAGCACCAUUUCGCUGCCAGUGAAGAAAUGAACAAAGAAAAUCUGGGCCAGGCAGGCAUCAAAAGAAAUAGUCUUGCGCUCAACCAGAAAGUCUGUAAUCAUUUUAAGGGCA [U12A U139C],1.59
6,GUUAACGGUCAAAGGCCAUGGAAACUAGGAGCACCAUUUCGCUGCCAGUGAAGAGAUGAACAAAGAAAAUCUGGGCCAGGCAGGCAUCAAAAGAAAUAGUCUUGCGCUCAACCAGAAAGUCUGUAAUCAUUUUAAGGGUA [U12A A55G],1.3
7,GUUAACGGUCAAAGGCCAUGGAAACUAGGAGCACCAUUUCGCUGCCAGUGAAGAUAUGAACAAAGAAAAUCUGGGCCAGGCAGGCAUCAAAAGAAAUAGUCUUGCGCUCAACCAGAAAGUCUGUAAUCAUUUUAAGGGUA [U12A A55U],2.25
8,GUUAACGGUCAAAGGCCAUGGAAACUAGGAGCACCAUUUCGCUGCCAGUGAAGAAAUGAACAAAGAAAAUCUGGGCCAGGCAGGCAUCAAAAGAAAUAGUCUUGCGCUCAACCAGAAAGUCUGUAAUCAUUUUAAGGAUA [U12A G138A],1.5
9,GUUAACGGUCUUAGGCCAUGGAAACUAGGAGCACCAUUUCGCUGCCAGUGAAGAAAUGAACAAAGAAAAUCUGGGCCAGGCAGGCAUCAAAAGAAAUAGUCUUGCGCUCAACCAGAAAGUCUGUAAUCAUUUUAAGGGCA [A11U U139C],1.23
10,GUUAACGGUCAAAGGCCAUGGAAACUAGGAGCACCAUUUCGCUGCCAGUGAAGAAAUGAACAAAGAAAAUCUGGGCCAGGCAGGCAUCAAAAGAAAUAGUCUUGCGCCCAACCAGAAAGUCUGUAAUCAUUUUAAGGGUA [U12A U108C],0.04
11,GUUAACGGUCAAAGGCCAUGGAAACUAGGAGCACCAUUUCGCUGCCAGUGAAGAAAUGAACAAAGAAAAUCUGGGCCAGGCAGGCAUCAAAAGAGAUAGUCUUGCGCUCAACCAGAAAGUCUGUAAUCAUUUUAAGGGUA [U12A A95G],1.29
12,GUUAACGGUCACAGGCCAUGGAUACUAGGAGCACCAUUUCGCUGCCAGUGAAGAAAUGAACAAAGAAAAUCUGGGCCAGGCAGGCAUCAAAAGAAAUAGUCUUGCGCUCAACCAGAAAGUCUGUAAUCAUUUUAAGGGUA [U12C A23U],0.97
13,GUUAACGGUCAAAGGCCAUGGAAACUAGGAGCUCCAUUUCGCUGCCAGUGAAGAAAUGAACAAAGAAAAUCUGGGCCAGGCAGGCAUCAAAAGAAAUAGUCUUGCGCUCAACCAGAAAGUCUGUAAUCAUUUUAAGGGUA [U12A A33U],1.4
14,GUUAACGGUCAAAGGCCAUGGCAACUAGGAGCACCAUUUCGCUGCCAGUGAAGAAAUGAACAAAGAAAAUCUGGGCCAGGCAGGCAUCAAAAGAAAUAGUCUUGCGCUCAACCAGAAAGUCUGUAAUCAUUUUAAGGGUA [U12A A22C],1.51
15,GUUAACGGUCAAAGGCCAUGGAAACUAGGAGCACCACUUCGCUGCCAGUGAAGAAAUGAACAAAGAAAAUCUGGGCCAGGCAGGCAUCAAAAGAAAUAGUCUUGCGCUCAACCAGAAAGUCUGUAAUCAUUUUAAGGGUA [U12A U37C],1.96
16,GUUAACGGUCAAAGGCCAUGGAAACCAGGAGCACCAUUUCGCUGCCAGUGAAGAAAUGAACAAAGAAAAUCUGGGCCAGGCAGGCAUCAAAAGAAAUAGUCUUGCGCUCAACCAGAAAGUCUGUAAUCAUUUUAAGGGUA [U12A U26C],2.17
17,GUUAACGGUCAAAGGCCAUGGAAACUAGGAGCACCAUUUCGCUGCCAGUGAAGAAAUGAACAAAGAAAAUCUGGGCCAGGCAGGCAUCAAAAGAAAUAGUCUUGCGCUUAACCAGAAAGUCUGUAAUCAUUUUAAGGGUA [U12A C109U],0.24
18,GUUAACGGUCAAAGGCCAUGGAAACUAGGAGCACCAUUUCGCUGCCAGUGAAGAAAUGAACAAAGAAAAUCUGGGCCAGGCAGGCAUCAAAAGAAAUAGUCCUGCGCUCAACCAGAAAGUCUGUAAUCAUUUUAAGGGUA [U12A U102C],1.73
19,GUUAACGGUCAAAGGCCAUGGAAACUAGGAGCACCAUUUCGCUGCCAGUGAAGAAAUGAACAAAGAAAAUCUGGGCCAGGCAGGCAUCAAAAGAAAUAGUCUUGCGCUCAACCAGAAAGUCUGUAAUCACUUUAAGGGUA [U12A U130C],1.21
20,GUUAACGGUCAAAGGCCAUGGAAACUAGGAGCACCAUUUCGCUGCCAGUGAAGAAAUGAACAAAGAAAAUCUGGGCCAGGCAGGCAUCAAAAGAAAUAGUCUUGCGCUCAACCAGAAAGUCAGUAAUCAUUUUAAGGGUA [U12A U122A],0.62

# Reference: the RNAGym collection of RNA variant scans (doi:10.7554/elife.90254)
